Test results from the DeepSol protein solubility set.

Test: soluble on expression in E. coli; label from the status in PepcDB or PDB records

Sequence	soluble on expression in E. coli
MSLPYSSSGVGHNGFDKADLHIHTKCSDGLFTPEEIVHKAIHVGLKAISITDHDTVTGIDQAKPLALELGLELIPGVEMSSAYKGYDIHILGYFFDYQQSELKGYLDHCRLLRTERAERMVQKLAKMGVKIEIEQIIMKAQNGSVGRPHIAAVLQDEGFVKSFSEAFSKYLGSHSPAYVKSIETHPEEVIRLINEAGGLSFLAHPAQNVPDEILRQLISFGLDGLEIIHPSHDTYRQNYYREIANEYFLLFSGGSDYHGPKDHEDNFGQVWIPYEWVTKMKSRLAPAVKEGHHHHHH	soluble
SSTGTFVVSQPLNYRGGARVEPADASGTEKAFEPATGRVIATFTCSGEKEVNLAVQNAKAAFKIWSQKSGMERCRILLEAARIIREREDEIATMECINNGKSIFEARLDIDISWQCLEYYAGLAASMAGEHIQLPGGSFGYTRREPLGVCVGIGAWNYPFQIASWKSAPALACGNAMVFKPSPFTPVSALLLAEIYSEAGVPPGLFNVVQGGAATGQFLCQHPDVAKVSFTGSVPTGMKIMEMSAKGIKPVTL	soluble
MYFVDRKKLEETLSYMEQMLDRYKAEERWDEPLRQLALERIAHIVIEAVLDVGNAMIDGFIMRDPGSYNDIIDILADEQVISPADADRLKAFIAHRKMLVHEYARVDHAKLLADLNEHLPALEAYPKAVRAYLENELGPVSAFRN	soluble
MTAANLTEQQRLELEAAAFRTLVHHLQTRKDVQNIDLMNLAGFCRNCLSKWYKAAADDLGVEVSNDQAREEIYGMPYAEWKAKYQKEASPEQQAAFAKSQGNA	not soluble
MGSDKIHHHHHHMSIKLDHRLLYLRVIEKIKSDIDDGVYKEGEKLPSEFELSKQLGVSRATLREALRILEDENIVIRKHGVGTFINARPPFTSGIEELYSVTEMIARAGMIPTSEVLSSEMVQPTERDRERFQLGPDELVYRIERIRLAGDVPVVYCVDKIPSHYIKNEEQFTSSTSLFDALEKELGRRVTHAVTHIEPRIDPKIAEQLHTDQPLLVLRQTHYDELDRSVLYSANYFRADKFDFHVIRKRV	not soluble
MRGLMLRSFSAGYSTQPVIADLNVPLLPRGKITILLGPNGCGKSTLLRSLAGLNNADGEALLDGEDLMSLSFAERAQKVVFLPQSLPQGVHLHVLESIIVVLRASGGRDNAQGRAQILAILEQLGITHLALQYLDQLSGGQRQLVGLAQSLIRRPELLLLDEPLSALDLNYQFHVMDLVRRDTQAQNRVTIVVAHDINIALRHGDHVLMLKDGRLVASGAPETVITAERLAEVYRVRGRVERCSQGKLQVVLDGVIAV	not soluble
MGSDKIHHHHHHMAPEDWLRAETQGDIVALVHSHPGGQPYLSDVDRRLQVQSDLPWWLVCAGQVHKFRCVPHLTGRHYKHGVFDCYTLFRDAYHLAGIDMPDFHRDDDWWRHGDNLYLDNLETTGFYRVSAASAQPGDVLICCFGSSVPNHAAIYCGDGELLHHIPEQLSKRERYTDKWQRRTHSIWRHRAWRASAFTGICNDFAAASACR	not soluble
EQSAYRIHSAYMVGGGGSITRDTYLSPLRYGGWTLNLLGEKTFPLKASDSRWMIRTGHELDFALMDNPANNAHFYSLLYNGSAAALYRLGAKHLRAAWMDNLRLAFGPGLEIGLGGIYSTRNGNNPATLKLYTNAIAQASIGYYVPSETFPLYFRLLSQINLFGIAYGNGFGESYYENFLLNNGIAGSLHFTYPGKFTRFTTLITADIPIRNFCTLRVGYRYSHLGSSLNALDTRIHSHTAFIGFVTEFYRFRGRKAMNTGRRTSLYYHD	not soluble
MPTPFRDLHNKSNASASSYETAWSSSFSSRRSTNNDSKSNLKEIKDEPISNLDESISILENNISMMSVSSPTPAYRTPARVIAREAPMTPGDRLLQKIEKEDERDMLRQLYPEMFDSNQKPRQKPKEVKKALKVESLSDYENDDKENVPPCGKPSKEKEEKKQRTKKIVISSDSEDDGNFENYLKTLREKPTEPAKPERKIPVKKDFVVDDDYISEESSEEESEEEEEDVDDEEYRESSPEVEAKISYSDRKQKKRPTDEEEWFLLSLSEKFSGPIHEDAKVYIKETSLRYKKHRESLLTRLQDILVRRIFSAIPSEKLKVIWNARLRKSAGQCRNHSNGNSTVEMSPVVCTTAERVRDTLIHELCHAATWVVDRLHKEGHGPGWKRWGARCSSVFKSLPFIERCHSYEIEAKFFYVCEKDGCDVEIKRQSKSLDTSRKACGRCFGRFILYRYCRRTNTRIRIEDPKAKPVGPILSNSSKPSPPAPRRIVSEHPEGFKEYSEEHYWKYTAQGLKHSDVMGKLLKEFKELKQL	not soluble
QGHMAWSAQQYLKFEDERTRPARDLLAQVPLERVLNGYDLGCGPGNSTELLTDRYGVNVITGIDSDDDMLEKAADRLPNTNFGKADLATWKPAQKADLLYANAVFQWVPDHLAVLSQLMDQLESGGVLAVQMPDNLQEPTHIAMHETADGGPWKDAFSGGGLRRKPLPPPSDYFNALSPKSSRVDVWHTVYNHPMKDADSIVEWVKGTGLRPYLAAAGEENREAFLADYTRRIAAAYPPMADGRLLLRFPRLFVVAVKK	soluble
MGSDKIHHHHHHMAVLVTRPDERGQQLVDMLAKAGVVAIHLPLFRIESGAELNELPNKFAKLKNGDYVFAVSKSAVDFAFKTLTATGFVWRHDLHYFTVGQGTAQYFTATTEMPVHYPTAQENSEGLLQLNAMQDLSDKTVLILRGNGGRELFAEQAQQRGANVEIVECYRREPIVYNNAEQTSICKRAGIQTIVVTSAEILTQLVDFVPQNEHNWLKSCQLITVSERIAHLAEALGWQNVVISPRADNQTLLQTLLQCR	not soluble
MSRAEFIRFLQVLEEDLPFRALFQEADPEEILKLADQHGFIFSDEIKGRFLNRWAGVYFCPFANDVGRLCPKMVPEGFSTLLHYSQTTCTKEDKVERFDFRAGGYYEGVKAVTG	not soluble
MGSKVAGKKKTQNDNKLDNENGSQQRENINTKTLLKGNLKISNYKYLEVIQLEHAVTKLVESYNKIIELSPNLVAYNEAVNNQDRVPVQILPSLSRYQLKLAAELKTLHDLKKDAILTEITDYENEFDTEQKQPILQEISKADMEKLEKLEQVKREKREKIDVNVYENLNEKEDEEEDEGEDSYDPTKAGDIVKATKWPPKLPEIQDLAIRARVFIHKSTIKDKVYLSGSEMINAHNERLEFLGDSILNSVMTLIIYNKFPDYSEGQLSTLRMNLVSNEQIKQWSIMYNFHEKLKTNFDLKDENSNFQNGKLKLYADVFEAYIGGLMEDDPRNNLPKIRKWLRKLAKPVIEEATRNQVALEKTDKLDMNAKRQLYSLIGYASLRLHYVTVKKPTAVDPNSIVECRVGDGTVLGTGVGRNIKIAGIRAAENALRDKKMLDFYAKQRAAIPRSESVLKDPSQKNKKRKFSDTS	soluble
AHHHHHHGSSSIEWNEKTFAKFAYLSDPRTKGELVAYVLTKANLKDNKYENTIVIENLKNNARRFIENATMPRISPDGKKIAFMRANEEKKVSEIWVADLETLSSKKILEAKNIRSLEWNEDSRKLLIVGFKRREDEDFIFEDDVPAWFDDLGFFDGEKTTFWIFDTESEEVIEEFEKPRFSSGIWHRDKIVVNVPHREIIPQYFKFWDIYIWEDGKEEKMFEKVSFYAVDSDGERILLYGKPEKKYMSEHNKLYIYDGKEVMGILDEVDRGVGQAKIKDGKVYFTLFEEGSVNLYIWDGEIKPIAKGRHWIMGFDVDEIVVYLKETATRLRELFTWDGEEKQLTDYNDPIFAKLKTFEPVHFRYKSLDLEIDGWYMKPELKEGEKAPVIVFVHGGPKGMYGYYFKYEMQLMAAKGYYIVYVNPRGSNGYSEDFALRVLTRTGLEDFQDILNGIEEFLKLEPQADRERIGITGISYGGYMTNWALTQSDLFKAGISENGISYWLTSYAFSDIGLWFDKEVIGENPLENENFRRLSPLFYAKNVKAPILLIHSLEDYRCPLDQSLMFYHVLKDLGKEAYIAIFKRGAHGHSIRGQPRHRMKRYKLFVEFFERKLKKYEEGFPIEKILKE	not soluble
MAHHHHHHMTHTGAAAASGASASTLSSQSTAAVASDDAFSEQHQGQKQRNLLRCFALADLLGVSPTVVQQLANAAATPSSSLHHARNTSRASSHCSTESDPVIRAYQLEQILVAAVVKQLFDRCCDPDQSIQNGGSVDAGQPAASSVSTTARQPARKHQPSSLKAPPWSAALSEPRRACTSPQQPDGERLLPSVLSSPQGVARVDALHASFLPLLLVALLQRVSEGSGGDTQATDATVPRQTPDTNAAASNTSAAVFSLRQQRSFRTALHQLLPLYTPLLLQRRRAARAVVSSVVVALQEYPCSGHDDGESTTEEEESRKRIQRLVHQGLCCSEVKQWLHAARLLSDTLVACLSHVSPRASIAATAPPPAIRRRRGGRGRFDGGAVDTGDGRGVAECGRDAPPRWRVGGGGAASVRSLVVGIRYERFEWCRAARARRQHPCKCWGPNEPTRAVHHHHHCRGARACRGHVYRRRGDVRRHLAPRGWPFWRTAAAATVELCSCWWSHSADTTRCTDTLSR	not soluble
MGSDKIHHHHHHMVATLDDTKRNAIAVKLASIKALQQLVIENEQSLLREGLDAEIADRIRNFLKDDEKNLGVLETVIGQYGIQAEPKKNVTQFIEKARELFKGSELSLYEKVSQHELLKHQLVMSGLIVHKAAQKVGADVLLAIGPLNTINFENRAHQEQLKGILEILGVREFTGQDADQGIWARVQDAMAAVSGVVGSAVTQTSDKSDLNIQDVIRLDHNKVNTLFTELLQSDNPQKIQEYFGQIYKDLTAHAEAEEEVVYPRVRPFYGQDNTQELFDEQAEMKRVLEQIKAISPSSSEFKDRVRQLMEAVGDHIRQEESTMFAAIRNNLSSDQSEQLATEFKAAKTRIQEKLGVVSESNA	not soluble
MEDYLVKALCYKGSIRAYAISATETVSEAQRRHDTWSSSTAALGRTLIGALLLGATLKGDDKLTVKVQGNGPAGAIIVDSNGRGETKGYIKNPHVSLKLNATGKIDVRGAVGNEGIFTVIKDLGLKETFSGQTPIVSGEIGEDFTYFMAVSEQVPSAIGLGVLVDTDESVKAAGGFMIQVMPGADESTIDFIEQRLAEVPPISQLLENGETPEQVLYRLLGEDEVEILEKMPVQFKCDCSKEKFATALIAVGIDELNAMIDEDHGAEAVCQFCNNKYHYSEEELIELRDEAIRNTKQK	not soluble
MSLGQRTSRTPDQLENVGVDQKLGATIPKDLSFQNEQGEPVRLSQYFDGSTPVMLTLNYHRCPQLCRIQLQKFTKSLSGMSWTAGDKFKVLTVDISPYEGPKMARKAQERYATFLDRPEETVDGWHFLTGNQAAIETLTDSVGFRYQPLPEKEKQFAHPTTIIFLSGDGTITRYFTTLDPAPGDLRTALVEASDGEGHHHHHH	soluble
KKEKSPKGKSSISPQARAFLEEVFRRKQSLNSKEKEEVAKKCGITPLQVRVWFINKRMRSK	soluble
MAHHHHHHMSTNRVATVVAGLDGANPVKRERHPAWYPPLKLDGNGLKVMNSLTETLEDFAPRDGRVVRWYTCGPTVYDLSHMGHARAYLTFDIIRRIMEDYFGYSVIYQMNITDIDDKIIKRARVNKLLVDFKEEELRHSDVAKLMAFTAEAVAAAESGLAKRKAALVEPIAKGTNSRAKADREEKLLEVQLKESQLVETKVKIAAAKDDFAALFAAASGVNGDLLDERSGHSVSDQQIFEDHARKYERAFFEDMQRLGIREPDIVTRVTEYVPQVVEFVQKIIDNGFAYAGETSVFFDTEAYIRAGHDYPKLKPGGDRNTTEDEMAEGEGVLSKGIEGEKRSPNDFALWKFSKPGEPRWPSPWGEGRPGWHIECSVMASDILGENMDIHSGGWDLKFPHHDNECAQSEACNLHSQWVNYFLHCGHLHIKGLKMSKSLKNFITIRQALDELGVTARTMRLLFLANPWNKPMNFSDQSLDEAKEKERVLRAFFGSVDIVLRADNWKATQGVNKHDRELLSKWVEAEAAVHAALQDNFDTVVALQQLMSLVAATNQYLLSGERPSATLVRKVGCYVTKMFRIFGVVEGSDDVGLQKQGSDDGEARFIEVVNTLVRFRDEVRNAAKDHKVVAGFLPLCDKVRDEWLVDAGVRLEDNPAGPTTWKSDEPALLQKELAERRAQQEGDRQRRLANQAETKRKLVEKWRQFTYPPSEYFRRQDEQRVEKKYTAYDDVTGLPTMTAAGEEVSEKEAKKLSKEQAKYAKSYDEFIGKGGVSWIQEQEAELASMVAELEGSK	not soluble
